{
  "source": "patent US20040131591A1",
  "about": "(OXFORD BIOMEDICA UK, published 2004)",
  "binders": {"B1": {"name": "B7-1/ScFv fusion protein (leader sequence and extracellular domain of murine B7.1 fused via a flexible linker to the VH and VL of the murine Mab 5T4 specific … (other)", "chain": "VDEQLSKSVKDKVLLPCRYNSPHEDESEDRIYWQKHDKVVLSVIAGKLKVWPEYKNRTLYDNTTYSLIILGLVLSDRGTYSCVVQKKERGTYEVKHLALVKLSIKADFSTPNITESGNPSADTKRITCFASGGFPKPRFSWLENGRELPGINTTISQDPESELYTISSQLDFNTTRNHTIKCLIKYGDAHVSEDFTWEKPPEDPPDSKPGGGGSGGGGSGGGGTSEVQLQQSGPDLVKPGASVKISCKASGYSFTGYYMHWVKQSHGKSLEWIGRINPNNGVTLYNQKFKDKAILTVDKSSTTAYMELRSLTSEDSAVYYCARSTMITNYVMDYWGQVTSVTVSSGGGGSGGGGTGGGGSSIVMTQTPTFLLVSAGDRVTITCKASQSVSNDVAWYQQKPGQSPTLLISYTSSRYAGVPDRFIGSGYGTDFTFTISTLQAEDLAVYFCQQDYNSPPTFGGGTKLEIKR", "notes": "Tested as about 30-fold concentrated supernatant of transiently transfected 293T cells; also called B7/ScFv; OBM 233"}},
  "biological_target": "T1, human 5T4 (oncofetal glycoprotein 5T4, trophoblast cell surface antigen) (human, UniProt Q13641 32-420)",
  "T1 construct": "whole, on cells; also called h5T4; 5T4 antigen",
  "T1 sequence (looked up)": "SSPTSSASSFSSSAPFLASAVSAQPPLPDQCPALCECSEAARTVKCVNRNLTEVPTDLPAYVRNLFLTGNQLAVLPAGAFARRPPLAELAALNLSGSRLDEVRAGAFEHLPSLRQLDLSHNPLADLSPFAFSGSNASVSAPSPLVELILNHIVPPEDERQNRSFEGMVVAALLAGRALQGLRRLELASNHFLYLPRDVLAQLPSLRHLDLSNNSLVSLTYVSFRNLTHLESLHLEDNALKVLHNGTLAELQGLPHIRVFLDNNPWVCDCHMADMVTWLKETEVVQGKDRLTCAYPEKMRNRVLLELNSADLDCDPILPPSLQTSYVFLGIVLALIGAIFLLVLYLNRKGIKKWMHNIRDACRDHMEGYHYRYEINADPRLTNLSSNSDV",
  "assay": "FACS: A9-h5T4 cells with B7.1/ScFv supernatant, then CTLA4-Ig, detected with FITC anti-mouse Ig",
  "method": "After washing cells were incubated with CTLA4-Ig (Ancell) for 1 hour. After washing, bound CTLA4-Ig was detected using an FITC conjugated anti-mouse Ig (Dako).",
  "data": [
    {"binder": "B1", "values": [
      {"measurement": "binding result", "result": "binds"}
    ]}
  ]
}
